# Tested on: Escherichia coli TOP10
# Assay: shrunken log2 fold change of peptide-encoding DNA abundance (4.5 h post-induction vs induction); higher = less antimicrobial activity (less host growth inhibition)
# Conditions: time post-induction: 4.5 h; library: site-saturation at positions 5, 18, 19, 20
# 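Note: peptides expressed intracellularly from a pBAD plasmid library in pooled LB shake-flask culture, induced with 0.3% L-arabinose, DNA abundance read by NGS, three biological replicates, DESeq2 with apeglm shrinkage.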
row,Sequence,shrunken log2 fold change
1,RRIRGRPPRLPRPRPRPHQWPRP,0.134
2,RRIRSRPPRLPRPRPRPRFLPRP,0.159
3,RRIRRRPPRLPRPRPRPEPMPRP,0.882
4,RRIRHRPPRLPRPRPRPHVKPRP,-0.00471
5,RRIRDRPPRLPRPRPRPVDSPRP,-0.0208
6,RRIRTRPPRLPRPRPRPSVYPRP,-0.389
7,RRIRFRPPRLPRPRPRPLQIPRP,-0.384
8,RRIRERPPRLPRPRPRPPCFPRP,-0.0819
9,RRIRIRPPRLPRPRPRPMHKPRP,-0.431
10,RRIRPRPPRLPRPRPRPHWTPRP,-0.119
11,RRIRWRPPRLPRPRPRPCYNPRP,-0.24
12,RRIRSRPPRLPRPRPRPSEFPRP,-0.306
13,RRIRKRPPRLPRPRPRPWKHPRP,-0.339
14,RRIRLRPPRLPRPRPRPGEYPRP,-0.0271
15,RRIRDRPPRLPRPRPRPASAPRP,0.616
16,RRIRHRPPRLPRPRPRPYHMPRP,-0.0151
17,RRIRPRPPRLPRPRPRPKYYPRP,-0.783
18,RRIRCRPPRLPRPRPRPIAEPRP,0.247
19,RRIRDRPPRLPRPRPRPHETPRP,-0.0736
20,RRIRPRPPRLPRPRPRPIFFPRP,0.211
21,RRIRWRPPRLPRPRPRPSRQPRP,0.399
22,RRIRPRPPRLPRPRPRPVWIPRP,0.0152
23,RRIRGRPPRLPRPRPRPPYYPRP,-0.0196

row,Sequence,shrunken log2 fold change
1,RRIRFRPPRLPRPRPRPGCQPRP,-0.157
2,RRIRKRPPRLPRPRPRPVNGPRP,0.0996
3,RRIRPRPPRLPRPRPRPMRSPRP,0.478
4,RRIRSRPPRLPRPRPRPHCWPRP,-0.0424
5,RRIRHRPPRLPRPRPRPCARPRP,-0.0479
6,RRIRTRPPRLPRPRPRPKMEPRP,-0.0203
7,RRIRFRPPRLPRPRPRPSDNPRP,-0.527
8,RRIRDRPPRLPRPRPRPPTPPRP,0.564
9,RRIRKRPPRLPRPRPRPCMFPRP,-0.167
10,RRIRDRPPRLPRPRPRPMEPPRP,0.127
11,RRIRDRPPRLPRPRPRPAEMPRP,0.515
12,RRIRSRPPRLPRPRPRPAEWPRP,1.02
13,RRIRCRPPRLPRPRPRPRNAPRP,0.291
14,RRIRLRPPRLPRPRPRPVRCPRP,0.0127
15,RRIRYRPPRLPRPRPRPSKNPRP,-0.722
16,RRIRRRPPRLPRPRPRPKAAPRP,0.596
17,RRIRNRPPRLPRPRPRPLGEPRP,-0.0638
18,RRIRPRPPRLPRPRPRPTHSPRP,0.185
19,RRIRDRPPRLPRPRPRPYYYPRP,-1.11
20,RRIRERPPRLPRPRPRPRTIPRP,-0.337
21,RRIRARPPRLPRPRPRPMCQPRP,0.13
22,RRIRARPPRLPRPRPRPRLSPRP,0.358
23,RRIRVRPPRLPRPRPRPGQHPRP,0.0795

row,Sequence,shrunken log2 fold change
1,RRIRMRPPRLPRPRPRPDQHPRP,0.237
2,RRIRWRPPRLPRPRPRPFALPRP,-0.129
3,RRIRHRPPRLPRPRPRPADWPRP,0.0838
4,RRIRIRPPRLPRPRPRPNHGPRP,-0.413
5,RRIRDRPPRLPRPRPRPRCQPRP,-0.128
6,RRIRHRPPRLPRPRPRPNAQPRP,-0.00277
7,RRIRLRPPRLPRPRPRPWVMPRP,-1.02
8,RRIRWRPPRLPRPRPRPAFCPRP,0.143
9,RRIRGRPPRLPRPRPRPLCCPRP,0.829
10,RRIRYRPPRLPRPRPRPGKCPRP,-0.264
11,RRIRIRPPRLPRPRPRPMIRPRP,-0.511
12,RRIRFRPPRLPRPRPRPSPPPRP,0.218
13,RRIRRRPPRLPRPRPRPYVKPRP,-0.166
14,RRIRTRPPRLPRPRPRPLGCPRP,0.0809
15,RRIRSRPPRLPRPRPRPITYPRP,-0.361
16,RRIRTRPPRLPRPRPRPCLDPRP,-0.405
17,RRIRHRPPRLPRPRPRPQDNPRP,-0.144
18,RRIRGRPPRLPRPRPRPDLFPRP,0.723
19,RRIRERPPRLPRPRPRPTIRPRP,-0.622
20,RRIRLRPPRLPRPRPRPCDMPRP,-0.0352
21,RRIRVRPPRLPRPRPRPVAKPRP,0.233
22,RRIRMRPPRLPRPRPRPIQTPRP,-0.00151
23,RRIRCRPPRLPRPRPRPFRMPRP,-0.113

row,Sequence,shrunken log2 fold change
1,RRIRKRPPRLPRPRPRPTDDPRP,1.01
2,RRIRYRPPRLPRPRPRPYHYPRP,-0.556
3,RRIRNRPPRLPRPRPRPMESPRP,-0.0333
4,RRIRNRPPRLPRPRPRPREWPRP,-0.00528
5,RRIRWRPPRLPRPRPRPWCWPRP,0.304
6,RRIRSRPPRLPRPRPRPAQDPRP,0.235
7,RRIRDRPPRLPRPRPRPFPMPRP,-0.0572
8,RRIRDRPPRLPRPRPRPGFCPRP,0.567
9,RRIRYRPPRLPRPRPRPTDWPRP,-0.314
10,RRIRKRPPRLPRPRPRPSVAPRP,0.394
11,RRIRHRPPRLPRPRPRPVVCPRP,-0.184
12,RRIRMRPPRLPRPRPRPTIWPRP,0.52
13,RRIRTRPPRLPRPRPRPNIIPRP,-1.01
14,RRIRRRPPRLPRPRPRPVLSPRP,0.0336
15,RRIRWRPPRLPRPRPRPCQHPRP,-0.116
16,RRIRERPPRLPRPRPRPGNHPRP,-0.141
17,RRIRNRPPRLPRPRPRPFMIPRP,-0.294
18,RRIRYRPPRLPRPRPRPHDRPRP,0.0039
19,RRIRDRPPRLPRPRPRPNLFPRP,0.0627
20,RRIRVRPPRLPRPRPRPAEFPRP,0.151
21,RRIRFRPPRLPRPRPRPREIPRP,0.0702
22,RRIRLRPPRLPRPRPRPTCLPRP,-0.255
